{"source": "patent US20060211627A1", "about": "(BURNHAM INSTITUTE, published 2006)", "note": "Square brackets hold non-standard residues; d marks the D form. Ends that are not written are not given here. 2Nal = N[C@@H](Cc1ccc2ccccc2c1)C(=O)O; d2Nal = N[C@H](Cc1ccc2ccccc2c1)C(=O)O; 2Thi = N[C@@H](Cc1cccs1)C(=O)O; Cha = N[C@@H](CC1CCCCC1)C(=O)O; d2Thi = N[C@H](Cc1cccs1)C(=O)O; dCha = N[C@H](CC1CCCCC1)C(=O)O", "data": [{"target": "GST-XIAP (human, UniProt P98170 1-497)", "sequence (P98170 whole entry)": "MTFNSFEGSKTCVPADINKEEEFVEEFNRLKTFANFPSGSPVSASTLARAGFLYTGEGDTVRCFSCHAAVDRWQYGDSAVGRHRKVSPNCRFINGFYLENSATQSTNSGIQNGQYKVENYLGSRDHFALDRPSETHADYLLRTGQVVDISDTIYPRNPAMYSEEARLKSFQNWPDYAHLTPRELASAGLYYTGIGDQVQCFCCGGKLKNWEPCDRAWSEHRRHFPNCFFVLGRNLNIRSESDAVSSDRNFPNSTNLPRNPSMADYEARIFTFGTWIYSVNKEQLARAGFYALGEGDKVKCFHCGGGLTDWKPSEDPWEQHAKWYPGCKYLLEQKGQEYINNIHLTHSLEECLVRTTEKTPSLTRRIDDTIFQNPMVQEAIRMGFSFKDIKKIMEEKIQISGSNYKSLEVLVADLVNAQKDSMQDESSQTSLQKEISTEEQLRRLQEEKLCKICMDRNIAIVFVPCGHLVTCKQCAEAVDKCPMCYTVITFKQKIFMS", "assay": "cell-based or functional assay", "values": [{"molecule": "[2Nal][d2Thi][dF][dW]", "note": "[TPI 1352-72]", "ratio of Vmax with and without peptide, caspase derepression assay": "> 2.4"}, {"molecule": "A[dW]W[2Thi]", "note": "[TPI 1352-6]", "ratio of Vmax with and without peptide, caspase derepression assay": "> 2.4"}, {"molecule": "[Cha][d2Nal]W[2Thi]", "note": "[TPI 1332-41]", "ratio of Vmax with and without peptide, caspase derepression assay": "> 2.4"}, {"molecule": "AWW[2Thi] (also: some Trp may retain formyl protecting groups)", "note": "[TPI 1332/1352-1]", "ratio of Vmax with and without peptide, caspase derepression assay": "> 2.4"}, {"molecule": "A[dW]W[2Thi]", "note": "[TPI 1332/1352-47]", "ratio of Vmax with and without peptide, caspase derepression assay": "> 2.4"}, {"molecule": "[2Nal][dCha]W[dW]", "note": "[TPI 1352-66]", "ratio of Vmax with and without peptide, caspase derepression assay": "> 2.4"}]}, {"target": "GST-BIR3RING (human) (UniProt P98170)", "sequence (P98170 243-497)": "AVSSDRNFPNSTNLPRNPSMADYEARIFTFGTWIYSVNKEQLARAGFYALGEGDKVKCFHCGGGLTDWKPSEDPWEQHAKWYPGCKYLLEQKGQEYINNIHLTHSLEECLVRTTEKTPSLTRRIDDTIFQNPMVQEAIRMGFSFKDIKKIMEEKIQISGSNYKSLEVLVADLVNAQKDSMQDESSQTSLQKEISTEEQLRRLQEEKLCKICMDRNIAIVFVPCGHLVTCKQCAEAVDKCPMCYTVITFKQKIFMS", "assay": "fluorescence polarization competition; unlabeled SMAC 0 to 50 µM against 400 nM rhodamine-SMAC and 1 µM GST-BIR3RING", "units": {"IC50": "µM"}, "values": [{"molecule": "unlabelled SMAC (peptide)", "IC50": 21}]}]}
